Experimental findings from patent publication US20130156764A1, “NEUTRALIZATION OF FLT3 LIGAND AS A LEUKEMIA THERAPY” (The Johns Hopkins University, priority 2010, published 2013) are described below.

A value given as a limit tells only on which side of the number the result lay.

In one assay the target is T1, FLT3/ITD in MV411 cells (Homo sapiens, UniProt P36888, INS600HVDFREYEYD).
T1 construct: endogenous in cells; host or cells: MV411
T1 sequence (P36888 with tags, fused parts or gaps INS600HVDFREYEYD): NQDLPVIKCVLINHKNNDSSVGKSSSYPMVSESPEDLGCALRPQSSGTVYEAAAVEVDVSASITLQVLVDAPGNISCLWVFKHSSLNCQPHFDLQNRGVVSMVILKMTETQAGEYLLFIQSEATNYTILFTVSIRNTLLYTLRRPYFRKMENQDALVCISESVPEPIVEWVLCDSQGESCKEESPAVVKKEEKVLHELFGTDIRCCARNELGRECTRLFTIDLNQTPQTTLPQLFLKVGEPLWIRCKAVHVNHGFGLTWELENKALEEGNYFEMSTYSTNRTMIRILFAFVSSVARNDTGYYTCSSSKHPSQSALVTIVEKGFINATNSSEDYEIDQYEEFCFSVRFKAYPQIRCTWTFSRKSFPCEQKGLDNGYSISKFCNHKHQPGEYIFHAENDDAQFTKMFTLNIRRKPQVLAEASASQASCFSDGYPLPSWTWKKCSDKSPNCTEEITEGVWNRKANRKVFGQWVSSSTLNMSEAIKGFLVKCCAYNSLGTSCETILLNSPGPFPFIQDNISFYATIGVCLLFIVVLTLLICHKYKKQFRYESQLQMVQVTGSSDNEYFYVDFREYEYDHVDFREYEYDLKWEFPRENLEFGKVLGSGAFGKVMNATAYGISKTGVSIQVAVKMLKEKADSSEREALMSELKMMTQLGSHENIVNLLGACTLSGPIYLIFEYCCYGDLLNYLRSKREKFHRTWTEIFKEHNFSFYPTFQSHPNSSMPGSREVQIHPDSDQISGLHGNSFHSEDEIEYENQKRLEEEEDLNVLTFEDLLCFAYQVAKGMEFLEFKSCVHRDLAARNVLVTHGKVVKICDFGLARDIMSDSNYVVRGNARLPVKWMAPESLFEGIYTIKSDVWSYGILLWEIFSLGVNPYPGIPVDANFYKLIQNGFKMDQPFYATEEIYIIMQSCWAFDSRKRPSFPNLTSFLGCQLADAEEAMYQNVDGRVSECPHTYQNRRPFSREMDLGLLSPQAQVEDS
Put plainly: FL stimulation, FLT3 phosphorylation in MV411 cells. The assay is classed as cell-based.

The test system of assay [1] is STAT5 and AKT phosphorylation. In words: FL stimulation, downstream signaling immunoblot in TF1/ITD and TF1/TKD cells. In kind it is cell-based. The method, then:
TF1 and BaF3 cells were transfected with pCINeo constructs containing either FLT3/ITD or FLT3/TKD mutation by electroporation (Bio-Rad, Hercules, Calif.). Stable transfectants were then selected by limiting dilution in 96-well plates with 1 mg/mL G418 (Invitrogen, Carlsbad, Calif.).
The possibility of further activation of FLT3 mutant receptors by exogenous FL was also tested in cell lines in which FL autocrine, paracrine, or intracrine stimulation of FLT3 receptor might exist. […] TF1 cells expressing FLT3 mutant receptors were starved for 16 hours in serum-free medium and washed once with PBS to deplete soluble FL (either produced by the cells or contained in the serum). These cells were then stimulated with exogenous FL for 15 minutes. More than 2-fold enhancement of FLT3 phosphorylation was detected in both TF1/ITD and TF1/TKD cell lines (FIG. 12A). […] To assess the functional effect of exogenous FL, TF1/ITD and TF1/TKD cells were cultured in serum-free medium in the absence and presence of FL for 48 hours. Apoptosis was assessed by Annexin V and 7AAD staining followed by FACS analysis. […] There was no change of cell cycle status in response to FL in these cells (data not shown).

In assay [2] the test system is FLT3 (wt, ITD, TKD) in FL−/− MEF cells. In words: FL stimulation, FLT3 phosphorylation in FL−/− MEF cells expressing wtFLT3, FLT3/ITD, FLT3/TKD. In kind it is cell-based, mice. How it is done:
Embryos were removed from female FL^−/− mice (purchased from Taconic, Hudson, N.Y.) on day 13 or 14 of pregnancy. Internal organs and heads were removed. The remainder of the embryos were washed, minced, digested with Trypsin/EDTA, and then resuspended in DMEM containing 10% FBS followed by centrifuging at 1000×g for 5 minutes. The cell pellet was resuspended in DMEM containing 10% FBS and cultured at 37° C. with 5% CO2. After 3 passages, the cells were transfected with CMV-SV40-large T antigen to immortalize FL^−/− MEF cells. The FL^−/− MEF cells represent bulk cells after transformation.
Retrovirus was obtained by harvesting supernatant 48 hours after transfection of 293T cells with pBabePuro constructs. […]
To eliminate the complicating factor of autocrine, paracrine, and intracrine FL expression on mutant FLT3 activation, FL^−/− MEF cells were established from FL^−/− mice. […] The addition of FL induced more than a 4-fold increase in FLT3 phosphorylation in FL^−/− MEF-FLT3, FL^−/− MEF-ITD, and FL^−/− MEF-TKD cells (quantitated by GS-800 Calibrated Densitometer (Bio-Rad) and Quantity One software (Bio-Rad)) (FIG. 10B, lanes 4, 6, and 8 versus lanes 3, 5, and 7). […]
The effect of endogenous FL expression on the activation of FLT3/ITD and FLT3/TKD mutant receptors were next examined. […] The expression of FL was assessed by the detection of the secreted form of FL in the cell culture supernatant. […]

B1: FL: Recombinant human FL (fms-related tyrosine kinase ligand) purchased from PeproTech; SEQ ID NO: 1 (protein, listed as Homo sapiens)
chain: MTVLAPAWSPTTYLLLLLLLSSGLSGTQDCSFQHSPISSDFAVKIRELSDYLLQDYPVTVASNLQDEELCGGLWRLVLAQRWMERLKTVAGSKMQGLLERVNTEIHFVTKCAFQPPPSCLRFVQTNISRLLQETSEQLVALKPWITRQNFSRCLELQCQPDSSTLPPPWSPRPLEATAPTAPQPPLLLLLLLPVGLLLLAAAWCLHWQRTRRRTPRPGEQVPPVPSPQDLLLVEH
B1: in the assay with FLT3/ITD in MV411 cells, the “phosphorylation of FLT3” value was “increased phosphorylation”. Further, the “AKT phosphorylation and AKT protein expression” value in assay [1] (TF1/ITD and TF1/TKD after FL stimulation) is on record as “Slightly increased”. In assay [1] (both TF1/ITD and TF1/TKD), this molecule displayed an STAT5 phosphorylation increase of 1.8 fold. Besides, the “increase in FLT3 phosphorylation” value in assay [2] (FL−/− MEF-FLT3, MEF-ITD and MEF-TKD cells, serum-free, FL 100 ng/mL 15 minutes) is more than 4 fold. In addition, the “FLT3 phosphorylation in cells expressing endogenous FL” value in assay [2] (exogenous FL 100 ng/mL, MEF-FLT3, MEF-ITD, MEF-TKD cells stably expressing FL) is on record as “did not further augment”.
